B1: HDV Ribozyme (parent)
chain: GGCCGGCAUGGUCCCAGCCUCCUCGCUGGCGCCGGCUGGGCAACAUUCCGAGGGGACCGUCCCCUCGGUAAUGGCGAAUGGGACCCA

The series covers variants of B1. Description: self-cleavage, relative activity (ratio to wild type); higher = more cleavage; co-transcriptional.
Take G6U A87U: the self-cleavage was 0.591.
In the case of G6A A71G, the self-cleavage was 0.762.
The value for G6A A71U was 0.554; that for G6A A71C was 0.269.
For the variant G6C G28A, the self-cleavage turned out to be 0.0545.
Turning to G6C G28U, the self-cleavage was determined as 0.
As for G6A C21G, the figure is 0.203; as for G6A C21U, 0.0665.
As for G6C C85U, the self-cleavage was 0.401.
The value for G6U G67U was 0.62; that for G6U G67A was 0.517; that for G6A C64U was 0.739.
The value for G6U C24U was 0.133; that for G6U C24A was 0.0378.
As for G6C U69C, the figure is 0.172.
In the case of G6A U79G, the self-cleavage stood at 0.227.
G6U C18U: the self-cleavage turned out to be 0.0369.
The value for G6C G38U was 0.203.
As for G6U G40U, the figure is 0.633; as for G6A G28U, 0.0573.
As for G6A G28C, the figure is 0.
As for G6U C22U, the self-cleavage is 0.136.
In the case of G6U C22G, the self-cleavage turned out to be 0.0489.
The value for G6A C61A was 0.695.
The value for G6U G80A was 0.104.
The value for G6C U46G was 0; that for G6C U46A was 0.
Consider G6C C7G, for which the self-cleavage worked out at 0.475.
As for G6C C7U, the figure is 0.787; as for G6C C21U, 0.0573.
Consider G6A G34C, for which the self-cleavage amounted to 0.104.
With G6C C63G, the self-cleavage came out at 0.246.
As for G6C C63A, the figure is 0.582; as for G6A C15A, 0.375; as for G6A C15U, 0.431.
The value for G6U G28U was 0.104; that for G6A G59U was 0.755.
As for G6C U12G, the figure is 0; as for G6C U12C, 0.123.
As to G6A U65A, the self-cleavage amounted to 0.54.
On to G6A U65G, for which the self-cleavage amounted to 0.506.
The value for G6U A43G was 0.0665; that for G6U A43U was 0.212.
On to G6U A43C, for which the self-cleavage is 0.0489.
As for G6A C58U, the figure is 0.702; as for G6A C58G, 0.68; as for G5U U69A, 0.262.
The value for G5U U69C was 0.277.
As for G6C C86U, the figure is 0.403.
On to G6A C57U, for which the self-cleavage turned out to be 0.665.
Consider G6A C14A, for which the self-cleavage stood at 0.237.
Take G6A C14G: the self-cleavage was found to be 0.287.
The value for G6U A56C was 0.665; that for G6C C57A was 0.346.
The value for G6U C33U was 0.217.
As to G6U C33G, the self-cleavage turned out to be 0.196.
The value for G6U C33A was 0.0332; that for G6C G80C was 0.172.
Consider G6C G80A, for which the self-cleavage came out at 0.0665.
G6U C30A: the self-cleavage was determined as 0.0791.
As for G6C U23C, the figure is 0.0639; as for G6C U23G, 0.
The value for G6C U23A was 0.0615; that for G6A U9G was 0.653; that for G6A U9C was 0.795.
G6A C66G: the self-cleavage came to 0.456.
As for G6A A78U, the figure is 0.0297; as for G6A A83U, 0.324; as for G6A U27C, 0.268.
As for G6A G25U, the figure is 0.089; as for G6A G25A, 0.121; as for G6A G25C, 0.0462.
As to G6C G11U, the self-cleavage turned out to be 0.
The value for G6A U46G was 0.229.
The value for G6U C44G was 0.268; that for G6U C44A was 0.213; that for G6C G34C was 0.115.
The value for G6C G34U was 0; that for G6C C30G was 0.0615; that for G6C C30U was 0.0723.
As for G6U A78U, the self-cleavage was 0.107.
For G6U C62U, the self-cleavage is 1.
Regarding G6C C49A, the self-cleavage was 0.262.
As for G6A G17U, the figure is 0.0773; as for G6C A43C, 0.0519; as for G6U C7U, 0.151.
For G6C C32G, the self-cleavage is 1.1.
Regarding G6C C32U, the self-cleavage worked out at 0.63.
In the case of G6A C32U, the self-cleavage is 1.12.
As for G6A C32G, the self-cleavage was found to be 0.138.
The value for G6U C21U was 0.122.
With G6C C22U, the self-cleavage was 0.185.
As for G6C U47C, the figure is 0.453; as for G6C C26U, 0.646; as for G6C C26A, 0.369.
For G6C C26G, the self-cleavage was found to be 0.378.
For G6C C58G, the self-cleavage was 0.133.
As for G6U C61A, the self-cleavage was 0.717.
The value for G6C C18G was 0.
As for G6A C33G, the self-cleavage was 0.0536.
With G6U G38A, the self-cleavage was found to be 0.0396.
As for G6U G38U, the figure is 0.0308; as for G6A G11C, 0.222.
As for G6A G11U, the figure is 0.095; as for G6A G39U, 0.317.
With G6A G39C, the self-cleavage is 0.0415.
Turning to G6U G34U, the self-cleavage was found to be 0.0755.
As for G6U G34A, the figure is 0.208; as for G6C G68C, 0.364; as for G6A C48G, 0.657.
The value for G6A C48A was 0.465.
As for G6A C48U, the figure is 0.759.
On to G6C C44U, for which the self-cleavage turned out to be 0.
As for G6A G38U, the figure is 0.0923.
The value for G6A C24U was 0.308.
The value for G6A C24A was 0.283; that for G6C C61G was 0.222.
For G6U C32U, the self-cleavage stood at 0.787.
As for G6U C32A, the figure is 1.08; as for G6C C24U, 0; as for G6C C24G, 0.151.
As for G6C C33G, the self-cleavage came to 0.185.
The value for G6C C33A was 0.172; that for G6C G31U was 0; that for G6C C84A was 0.332.
As for G6C C84U, the figure is 0.0573; as for G6C C84G, 0.138.
On to G6A C49U, for which the self-cleavage is 0.58.
As for G6A C49A, the figure is 0.566; as for G6A C49G, 0.222.
With G6C A8U, the self-cleavage was found to be 0.346.
The value for G6A A77G was 0.277; that for G6A A77U was 0.18; that for G6U C84G was 0.0923.
The value for G6C A16U was 0.199; that for G6U C15A was 0.
Turning to G6U C15U, the self-cleavage was 0.646.
For the variant G6C A78C, the self-cleavage stood at 0.0831.
As for G6C A78G, the figure is 0; as for G6A C22A, 0.208; as for G6A C22U, 0.4.
Take G6C U60A: the self-cleavage amounted to 0.231.
The value for G6C G17A was 0; that for G6C G81U was 0.0615.
The value for G6C G81C was 0.185; that for G6C G81A was 0.0811.
The value for G6A A16G was 0.573.
Regarding G6A G35U, the self-cleavage was found to be 0.148.
The value for G6A A8C was 0.323; that for G6C C66A was 0.201.
With G6C C66U, the self-cleavage amounted to 0.256.
For G6U G76U, the self-cleavage stood at 0.731.
Regarding G6U G76A, the self-cleavage came out at 0.708.
As to G6U C63G, the self-cleavage worked out at 0.268.
The value for G6A G73A was 0.256; that for G6C C41U was 0.
Consider G6C C41A, for which the self-cleavage worked out at 0.
The value for G6C C41G was 0.
As for G6A U20C, the figure is 0.158.
The value for G6A U20A was 0.0536.
Turning to G6C G54U, the self-cleavage was 0.231.
As for G6U A70C, the self-cleavage amounted to 0.135.
Regarding G6U A70U, the self-cleavage stood at 0.46.
As to G6A C19G, the self-cleavage was found to be 0.
As for G6A C63A, the figure is 0.407; as for G6A G82U, 0.188.
G6C G67C: the self-cleavage was 0.192.
